US20140341881A1
Substitutions are numbered along the chain they refer to.

B1: AATE8, P01009 25-418 (protein, human)
chain: HHHHHHEDPQGDAAQKTDTSHHDQDHPTFNKITPNLAEFAFSLYRQLAHQSNSTNIFFSPVSIATAFAMLSLGTKADTHDEILEGLNFNLTEIPEAQIHEGFQELLRTLNQPDSQLQLTTGNGLFLSEGLKLVDKFLEDVKKLYHSEAFTVNFGDTEEAKKQINDYVEKGTQGKIVDLVKELDRDTVFALVNYIFFKGKWERPFEVKDTEEEDFHVDQVTTVKVPMMKRLGMFNIQHCKKLSSWVLLMKYLGNATAIFFLPDEGKLQHLENELTHDIITKFLENEDRRSASLHLPKLSITGTYDLKSVLGQLGITKVFSNGADLSGVTEEAPLKLSKAVHKAVLTIDEKGTEAAGAMFLEALQRAIPPEVKFNKPFVFLMIEQNTKSPLFMGKVVNPTQK
B2: AATG1, P01009 25-418 (protein, human)
chain: B1 chain with A361G, L362S, Q363L, A365S
B3: AATG9, P01009 25-418 (protein, human)
chain: B1 chain with A361T, L362V, Q363D, R364Y
B4: AATG1g, P01009 25-418 (protein, human)
chain: B1 chain with A361G, L362S, Q363L, A365G
B5: AATC11, P01009 25-418 (protein, human)
chain: B1 chain with L362I, Q363P, A365Q, I366T, P367N
B6: ACTE8, P01011 24-423 (protein)
chain: MRGSHHHHHHSRHPNSPLDEENLTQENQDRGTHVDLGLASANVDFAFSLYKQLVLKAPDKNVIFSPLSISTALAFLSLGAHNTTLTEILKGLKFNLTETSEAEIHQSFQHLLRTLNQSSDELQLSMGNAMFVKEQLSLLDRFTEDAKRLYGSEAFATDFQDSAAAKKLINDYVKNGTRGKITDLIKDLDSQTMMVLVNYIFFKAKWEMPFDPQDTHQSRFYLSKKKWVMVPMMSLHHLTIPYFRDEELSCTVVELKYTGNASALFILPDQDKMEEVEAMLLPETLKRWRDSLEFREIGELYLPKFSISRDYNLNDILLQLGIEEAFTSKADLSGITGARNLAVSQVVHKAVLDVFEEGTEASAATAVKILQRAILVETRTIVRFNRPFLMIIVPTDTQNIFFMSKVTNPKQA
B7: ACTG9, P01011 24-423 (protein)
chain: B6 chain with I369T, L370V, Q371D, R372Y, I374A
B8: ACTC11D, P01011 24-423 (protein)
chain: B6 chain with L370T, Q371L, A373Q, I374T, L375N, V376D
B9: ACTC11, P01011 24-423 (protein)
chain: B6 chain with L370T, Q371L, A373Q, I374T, L375N
B10: rACTWT (recombinant wild type alpha-1-antichymotrypsin), P01011 24-423 (protein, human)
chain: HHHHHHHPNSPLDEENLTQENQDRGTHVDLGLASANVDFAFSLYKQLVLKAPDKNVIFSPLSISTALAFLSLGAHNTTLTEILKGLKFNLTETSEAEIHQSFQHLLRTLNQSSDELQLSMGNAMFVKEQLSLLDRFTEDAKRLYGSEAFATDFQDSAAAKKLINDYVKNGTRGKITDLIKDLDSQTMMVLVNYIFFKAKWEMPFDPQDTHQSRFYLSKKKWVMVPMMSLHHLTIPYFRDEELSCTVVELKYTGNASALFILPDQDKMEEVEAMLLPETLKRWRDSLEFREIGELYLPKFSISRDYNLNDILLQLGIEEAFTSKADLSGITGARNLAVSQVVHKAVLDVFEEGTEASAATAVKITLLSALVETRTIVRFNRPFLMIIVPTDTQNIFFMSKVTNPKQA
B11: rACTWT (recombinant wild type alpha-1-antichymotrypsin) (protein, human)
chain: B10 chain

biological target: trypsin (human), P07477; experiment: cell-based or functional assay
Also: test concentration or dose not given here.

Q: For B1, which % Inhibition is on record?
A: Its % Inhibition is 100%.

Q: What about the Percentage inhibition of the same binder?
A: Its Percentage inhibition is 100%.

Q: B2 was tested. Which % Inhibition did it give?
A: The % Inhibition was 100%.

Q: Which results are given for B3?
A: % Inhibition: 0%; Percentage inhibition: 0%

Q: For B4, which % Inhibition is on record?
A: Its % Inhibition is 100%.

Q: How did the % Inhibition turn out when B5 was run?
A: The % Inhibition was 100%.

Q: For B6, which % Inhibition is on record?
A: Its % Inhibition is 100%.

Q: What about the Percentage inhibition of the same binder?
A: Its Percentage inhibition is 100%.

Q: Which Percentage inhibition does the source give for B7 here?
A: The Percentage inhibition was 0%.

Q: B8 was tested. Which % Inhibition did it give?
A: Its % Inhibition is 100%.

Q: Which % Inhibition does the source give for B9 here?
A: The % Inhibition was 100%.

Q: B10 was tested. Which % Inhibition did it give?
A: Its % Inhibition is 0%.

Q: And the Percentage inhibition?
A: Its Percentage inhibition is 0%.

biological target: T1, human kallikrein 14 (hK14) (human) (UniProt Q9P0G3); experiment: cell-based or functional assay
T1 sequence (looked up): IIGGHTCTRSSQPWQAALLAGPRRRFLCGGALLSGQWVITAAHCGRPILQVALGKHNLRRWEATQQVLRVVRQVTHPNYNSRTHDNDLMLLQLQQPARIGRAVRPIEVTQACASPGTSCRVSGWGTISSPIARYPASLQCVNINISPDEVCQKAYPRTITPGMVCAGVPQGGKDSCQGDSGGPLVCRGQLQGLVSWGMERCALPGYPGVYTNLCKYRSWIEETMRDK

Q: With B11 as the binder, how does the % Inhibition read?
A: The % Inhibition was 17%.

Q: What about the Percentage inhibition of the same binder?
A: Its Percentage inhibition is 17%.
